{
  "source": "the Human Domainome abundance scans (Beltran et al. 2025)",
  "parents": {"B1": {"name": "Storkhead-box protein 2, residues 64 to 141; numbered along this chain, Q9P2F5 (parent)", "chain": "SPISQSQFIPLGEILCLAISAMNSARKPVTQEALMEHLTTCFPGVPTPSQEILRHTLNTLVRERKIYPTPDGYFIVTP"}},
  "note": "± gives the uncertainty stated by the source.",
  "data": [
    {"variants_of": "B1", "test": "abundance fitness (aPCA) (normalised: wild type 0, dead -1); higher = more abundant; growth selection in yeast, the domain comes from the species named", "settings": "Homo sapiens", "values": [
      {"variant": "SPISQSQFIPLGEILCLAISAMNSARKPVTQEAPMEHLTTCFPGVPTPSQEILRHTLNTLVRERKIYPTPDGYFIVTP", "abundance fitness": "-1.09 ± 0.14"},
      {"variant": "SPISQSQFIPLGEILCLAISAMNSARKPVTQEACMEHLTTCFPGVPTPSQEILRHTLNTLVRERKIYPTPDGYFIVTP", "abundance fitness": "-0.048 ± 0.074"},
      {"variant": "SPISQSQFIPLGEILCLAISAMNSARKPVTQEAAMEHLTTCFPGVPTPSQEILRHTLNTLVRERKIYPTPDGYFIVTP", "abundance fitness": "-0.45 ± 0.044"},
      {"variant": "SPISQSQFIPLGEILCLAISAMNSARKPVTQEAHMEHLTTCFPGVPTPSQEILRHTLNTLVRERKIYPTPDGYFIVTP", "abundance fitness": "-0.87 ± 0.21"},
      {"variant": "SPISQSQFIPLGEILCLAISAMNSARKPVTQEAKMEHLTTCFPGVPTPSQEILRHTLNTLVRERKIYPTPDGYFIVTP", "abundance fitness": "-1 ± 0.21"},
      {"variant": "SPISQSQFIPLGEILCLAISAMNSARKPVTQEAEMEHLTTCFPGVPTPSQEILRHTLNTLVRERKIYPTPDGYFIVTP", "abundance fitness": "-1.08 ± 0.22"},
      {"variant": "SPISQSQFIPLGEILCLAISAMNSARKPVTQEAQMEHLTTCFPGVPTPSQEILRHTLNTLVRERKIYPTPDGYFIVTP", "abundance fitness": "-0.774 ± 0.11"},
      {"variant": "SPISQSQFIPLGEILCLAISAMNSARKPVTQEASMEHLTTCFPGVPTPSQEILRHTLNTLVRERKIYPTPDGYFIVTP", "abundance fitness": "-0.869 ± 0.071"},
      {"variant": "SPISQSQFIPLGEILCLAISAMNSARKPVTQEARMEHLTTCFPGVPTPSQEILRHTLNTLVRERKIYPTPDGYFIVTP", "abundance fitness": "-0.83 ± 0.067"},
      {"variant": "SPISQSQFIPLGEILCLAISAMNSARKPVTQEAIMEHLTTCFPGVPTPSQEILRHTLNTLVRERKIYPTPDGYFIVTP", "abundance fitness": "-0.012 ± 0.12"},
      {"variant": "SPISQSQFIPLGEILCLAISAMNSARKPVTQEAGMEHLTTCFPGVPTPSQEILRHTLNTLVRERKIYPTPDGYFIVTP", "abundance fitness": "-1.09 ± 0.094"},
      {"variant": "SPISQSQFIPLGEILCLAISAMNSARKPVTQEAVMEHLTTCFPGVPTPSQEILRHTLNTLVRERKIYPTPDGYFIVTP", "abundance fitness": "-0.045 ± 0.039"},
      {"variant": "SPISQSQFIPLGEILCLAISAMNSARKPVTQEAWMEHLTTCFPGVPTPSQEILRHTLNTLVRERKIYPTPDGYFIVTP", "abundance fitness": "-0.994 ± 0.12"},
      {"variant": "SPISQSQFIPLGEILCLAISAMNSARKPVTQEATMEHLTTCFPGVPTPSQEILRHTLNTLVRERKIYPTPDGYFIVTP", "abundance fitness": "-0.576 ± 0.084"},
      {"variant": "SPISQSQFIPLGEILCLAISAMNSARKPVTQEAMMEHLTTCFPGVPTPSQEILRHTLNTLVRERKIYPTPDGYFIVTP", "abundance fitness": "-0.208 ± 0.087"},
      {"variant": "SPISQSQFIPLGEILCLAISAMNSARKPVTQEAFMEHLTTCFPGVPTPSQEILRHTLNTLVRERKIYPTPDGYFIVTP", "abundance fitness": "-0.576 ± 0.12"},
      {"variant": "SPISQSQFIPLGEILCLAISAMNSARKPVTQEALMGHLTTCFPGVPTPSQEILRHTLNTLVRERKIYPTPDGYFIVTP", "abundance fitness": "-0.028 ± 0.047"},
      {"variant": "SPISQSQFIPLGEILCLAISAMNSARKPVTQEALMDHLTTCFPGVPTPSQEILRHTLNTLVRERKIYPTPDGYFIVTP", "abundance fitness": "-0.012 ± 0.083"},
      {"variant": "SPISQSQFIPLGEILCLAISAMNSARKPVTQEALMSHLTTCFPGVPTPSQEILRHTLNTLVRERKIYPTPDGYFIVTP", "abundance fitness": "-0.001 ± 0.048"},
      {"variant": "SPISQSQFIPLGEILCLAISAMNSARKPVTQEALMAHLTTCFPGVPTPSQEILRHTLNTLVRERKIYPTPDGYFIVTP", "abundance fitness": "-0.063 ± 0.052"},
      {"variant": "SPISQSQFIPLGEILCLAISAMNSARKPVTQEALMQHLTTCFPGVPTPSQEILRHTLNTLVRERKIYPTPDGYFIVTP", "abundance fitness": "0.029 ± 0.075"},
      {"variant": "SPISQSQFIPLGEILCLAISAMNSARKPVTQEALMPHLTTCFPGVPTPSQEILRHTLNTLVRERKIYPTPDGYFIVTP", "abundance fitness": "-0.424 ± 0.061"},
      {"variant": "SPISQSQFIPLGEILCLAISAMNSARKPVTQEALMCHLTTCFPGVPTPSQEILRHTLNTLVRERKIYPTPDGYFIVTP", "abundance fitness": "-0.064 ± 0.067"},
      {"variant": "SPISQSQFIPLGEILCLAISAMNSARKPVTQEALMLHLTTCFPGVPTPSQEILRHTLNTLVRERKIYPTPDGYFIVTP", "abundance fitness": "-0.058 ± 0.048"},
      {"variant": "SPISQSQFIPLGEILCLAISAMNSARKPVTQEALMMHLTTCFPGVPTPSQEILRHTLNTLVRERKIYPTPDGYFIVTP", "abundance fitness": "-0.059 ± 0.12"},
      {"variant": "SPISQSQFIPLGEILCLAISAMNSARKPVTQEALMKHLTTCFPGVPTPSQEILRHTLNTLVRERKIYPTPDGYFIVTP", "abundance fitness": "-0.008 ± 0.087"},
      {"variant": "SPISQSQFIPLGEILCLAISAMNSARKPVTQEALMHHLTTCFPGVPTPSQEILRHTLNTLVRERKIYPTPDGYFIVTP", "abundance fitness": "-0.082 ± 0.079"},
      {"variant": "SPISQSQFIPLGEILCLAISAMNSARKPVTQEALMRHLTTCFPGVPTPSQEILRHTLNTLVRERKIYPTPDGYFIVTP", "abundance fitness": "0.003 ± 0.039"},
      {"variant": "SPISQSQFIPLGEILCLAISAMNSARKPVTQEALMNHLTTCFPGVPTPSQEILRHTLNTLVRERKIYPTPDGYFIVTP", "abundance fitness": "0.054 ± 0.11"},
      {"variant": "SPISQSQFIPLGEILCLAISAMNSARKPVTQEALMFHLTTCFPGVPTPSQEILRHTLNTLVRERKIYPTPDGYFIVTP", "abundance fitness": "-0.158 ± 0.1"},
      {"variant": "SPISQSQFIPLGEILCLAISAMNSARKPVTQVALMEHLTTCFPGVPTPSQEILRHTLNTLVRERKIYPTPDGYFIVTP", "abundance fitness": "-0.071 ± 0.045"},
      {"variant": "SPISQSQFIPLGEILCLAISAMNSARKPVTQTALMEHLTTCFPGVPTPSQEILRHTLNTLVRERKIYPTPDGYFIVTP", "abundance fitness": "0.008 ± 0.091"},
      {"variant": "SPISQSQFIPLGEILCLAISAMNSARKPVTQYALMEHLTTCFPGVPTPSQEILRHTLNTLVRERKIYPTPDGYFIVTP", "abundance fitness": "-0.104 ± 0.11"},
      {"variant": "SPISQSQFIPLGEILCLAISAMNSARKPVTQWALMEHLTTCFPGVPTPSQEILRHTLNTLVRERKIYPTPDGYFIVTP", "abundance fitness": "-0.139 ± 0.047"},
      {"variant": "SPISQSQFIPLGEILCLAISAMNSARKPVTQEVLMEHLTTCFPGVPTPSQEILRHTLNTLVRERKIYPTPDGYFIVTP", "abundance fitness": "-0.127 ± 0.046"}
    ]}
  ]
}
